The target of test [1] is Biotinylated human BSSL (human) (UniProt P19835). Briefly: ELISA, b-hBSSL coated through streptavidin at 1 µg/ml, detection HRP anti-FLAG M2, A450. On the technique in general: An ELISA detects its analyte on a solid surface through an enzyme-linked reagent.
Test [2] shares this target. Description: SPR single cycle kinetics, scFv captured by anti-FLAG M2.
For test [3] the target is unchanged. Description: flow cytometry displacement assay; 1.5 ug antibody, 1 ug b-hBSSL. For orientation: A flow cytometer gives signals particle by particle.
Test [4] shares this target. Briefly: flow cytometry displacement assay; 3.0 ug antibody, 1 ug b-hBSSL.

Biotinylated human BSSL (human), sequence (P19835 other isoform, or with tags, fused parts or gaps): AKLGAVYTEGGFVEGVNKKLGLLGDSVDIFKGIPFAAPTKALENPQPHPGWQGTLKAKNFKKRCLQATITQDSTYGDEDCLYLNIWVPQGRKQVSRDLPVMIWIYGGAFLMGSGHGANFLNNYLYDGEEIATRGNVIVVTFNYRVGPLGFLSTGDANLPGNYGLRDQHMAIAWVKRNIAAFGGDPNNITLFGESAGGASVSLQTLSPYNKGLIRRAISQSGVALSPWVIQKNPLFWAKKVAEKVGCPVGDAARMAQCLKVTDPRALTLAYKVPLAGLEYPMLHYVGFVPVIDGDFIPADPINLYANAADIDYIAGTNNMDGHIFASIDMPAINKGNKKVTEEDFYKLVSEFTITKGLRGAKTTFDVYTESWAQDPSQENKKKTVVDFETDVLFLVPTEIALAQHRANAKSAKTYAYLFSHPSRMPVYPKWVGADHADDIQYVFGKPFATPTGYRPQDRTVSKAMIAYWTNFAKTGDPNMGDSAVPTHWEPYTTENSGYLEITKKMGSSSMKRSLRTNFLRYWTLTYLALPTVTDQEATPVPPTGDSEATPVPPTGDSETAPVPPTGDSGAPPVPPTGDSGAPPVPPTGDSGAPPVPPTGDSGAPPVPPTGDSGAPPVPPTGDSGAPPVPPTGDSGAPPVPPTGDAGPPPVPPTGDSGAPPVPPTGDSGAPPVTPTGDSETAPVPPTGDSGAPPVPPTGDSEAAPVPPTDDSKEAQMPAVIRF

B1: AS20 scFv (scFv, V domains shown, not shown: small tags and cut ends)
VH: QVQLQQPGAELVKPGASVKMSCKASGYTFTSYNMHWVKQTPGQGLEWIGVIYPGNGDTSYNQKFKGKATLTADKSSSTAYMQLSSLTSEDSAVYYCARDYYGSSPLGYWGQGTTLTVSS
VL: QIVLTQSPAVMSASPGEKVTMTCSASSSISYMHWYQQKPGTSPKRWIYDTSKLASGVPARFSGSGSGTSYSLTISSMEAEDAATYYCHQRSSYPTFGGGTKLEIK
modifications: Gly-Ser linker; C-terminal 3xFLAG and His6 tags
In general, EC50 (read off the curve) refers to the concentration at which the effect is half-maximal. Low values mean a more potent agent, high ones a less potent agent. For orientation: Kd means the free concentration of one partner at which half of the binding sites on the other are occupied at equilibrium, for simple one-to-one binding. Broadly, the koff is the first-order rate constant of dissociation. By kon is commonly meant the second-order rate constant of association. Read a high kon as faster complex formation. In test [1], B1 came in with an EC50 (read off the curve) of 0.02 µg/mL. In test [2], the Kd worked out at 0.8 nM, the off-rate (koff) was 4.4e-05 s⁻¹ and the kon is 55000 M⁻¹ s⁻¹.

B2: S-SL048-75 hIgG4 S228P (antibody, V domains shown)
VH: QVQLVQSGAEVKKPGASVKVSCKASGYTFTSYNMHWVRQAPGQGLEWMGVIYPGGGYTSYAQKFKGRVTMTRDTSTSTVYMELSSLRSEDTAVYYCARDYYGSSPLGYWGQGTLVTVSS
VL: DIQMTQSPSSLSASVGDRVTITCRASQSISYLNWYQQKPGKAPKLLIYATSNLQSGVPSRFSGSGSGTDFTLTISSLQPEDFATYYCHQRSSSPTFGQGTKLEIK
In the case of B2, the percentage reduction of b-hBSSL binding to CD14+ monocytes in test [3] turned out to be 3%; in test [4], 0%.

(Values after patent US20220267469A1.)
